Source: FireProtDB (doi:10.1073/pnas.0804396105)
Values joined by “and” are separate entries in the source; they are usually repeats but may differ in a detail not shown here. Identical values can stand only once.

B1: Adenosine receptor A2a, P29274 (parent)
chain: MPIMGSSVYITVELAIAVLAILGNVLVCWAVWLNSNLQNVTNYFVVSLAAADIAVGVLAIPFAITISTGFCAACHGCLFIACFVLVLTQSSIFSLLAIAIDRYIAIRIPLRYNGLVTGTRAKGIIAICWVLSFAIGLTPMLGWNNCGQPKEGKNHSQGCGEGQVACLFEDVVPMNYMVYFNFFACVLVPLLLMLGVYLRIFLAARRQLKQMESQPLPGERARSTLQKEVHAAKSLAIIVGLFALCWLPLHIINCFTFFCPDCSHAPLWLMYLAIVLSHTNSVVNPFIYAYRIREFRQTFRKIIRSHVLRQQEPFKAAGTSARVLAAHGSDGEQVSLRLNGHPPGVWANGSAPHPERRPNGYALGLVSGGSAQESQGNTGLPDVELLSHELKGVCPEPPGLDDPLAQDGAGVS

Variants of: B1
Conditions: Homo sapiens; pH 7.4; Thermal; Activity; Tris 50 mM; NaCl 0.4 M; structure 4UHR; whole UniProt chain shown

Variant	Tm	change of melting temperature, mutant - wild type (higher = more stable)
MPIMGSSVYITVELAIAVLAILGNVLVCWAVWLNSNLQNVTNYFVVSLAAADILVGVLAIPFAITISTGFCAACHGCLFIACFVLVLTQSSIFSLLAIAIDRYIAIRIPLRYNGLVTGTRAKGIIAICWVLSFAIGLTPMLGWNNCGQPKEGKNHSQGCGEGQVACLFEDVVPMNYMVYFNFFACVLVPLLLMLGVYLRIFLAARRQLKQMESQPLPGERARSTLQKEVHAAKSLAIIAGLFALCWLPLHIINCFTFFCPDCSHAPLWLMYLAIVLSHTNSVVNPFIYAYRIREFRQTFRKIIRSHVLRQQEPFKAAGTSARVLAAHGSDGEQVSLRLNGHPPGVWANGSAPHPERRPNGYALGLVSGGSAQESQGNTGLPDVELLSHELKGVCPEPPGLDDPLAQDGAGVS [A54L V239A]	40 °C and 42 °C	9 °C and 10 °C
MPIMGSSVYITVELAIAVLAILGNVLVCWAVWLNSNLQNVTNYFVVSLAAADIAVGVLAIPFAITISTGFCAACHGCLFIACFVLVLTQSSIFSLLAIAIDRYIAIRIPLRYNALVTATRAKGIIAICWVLSFAIGLTPMLGWNNCGQPKEGKNHSQGCGEGQVACLFEDVVPMNYMVYFNFFACVLVPLLLMLGVYLRIFLAARRQLKQMESQPLPGERARSTLQKEVHAAKSLAIIVGLFALCWLPLHIINCFTFFCPDCSHAPLWLMYLAIVLSHTNSVVNPFIYAYRIREFRQTFRKIIRSHVLRQQEPFKAAGTSARVLAAHGSDGEQVSLRLNGHPPGVWANGSAPHPERRPNGYALGLVSGGSAQESQGNTGLPDVELLSHELKGVCPEPPGLDDPLAQDGAGVS [G114A G118A]	31 °C	11 °C
MPIMGSSVYITVELAIAVLAILGNVLVCWAVWLNSNLQNVTNYFVVSLAAADILVGVLAIPFAITISTGFCAACHGCLFIACFVLVLAQSSIFSLLAIAIDRYIAIRIPLRYNGLVTGTRAKGIIAICWVLSFAIGLTPMLGWNNCGQPKEGKNHSQGCGEGQVACLFEDVVPMNYMVYFNFFACVLVPLLLMLGVYLRIFLAARRQLKQMESQPLPGERARSTLQKEVHAAKSLAIIAGLFALCWLPLHIINCFTFFCPDCSHAPLWLMYLAIVLSHTNSVVNPFIYAYRIREFRQTFRKIIRSHVLRQQEPFKAAGTSARVLAAHGSDGEQVSLRLNGHPPGVWANGSAPHPERRPNGYALGLVSGGSAQESQGNTGLPDVELLSHELKGVCPEPPGLDDPLAQDGAGVS [A54L T88A V239A]	46 °C	14 °C
MPIMGSSVYITVELAIAVLAILGNVLVCWAVWLNSNLQNVTNYFVVSLAAADILVGVLAIPFAITISTGFCAACHGCLFIACFVLVLTQSSIFSLLAIAIDRYIAIRIPLRYNGLVTGTRAKGIIAICWVLSFAIGLTPMLGWNNCGQPKEGKNHSQGCGEGQVACLFEDVVPMNYMVYFNFFACVLVPLLLMLGVYLRIFLAARRQLKQMESQPLPGERARSTLQKEVHAAKSAAIIVGLFALCWLPLHIINCFTFFCPDCSHAPLWLMYLAIVLSHTNSVVNPFIYAYRIREFRQTFRKIIRSHVLRQQEPFKAAGTSARVLAAHGSDGEQVSLRLNGHPPGVWANGSAPHPERRPNGYALGLVSGGSAQESQGNTGLPDVELLSHELKGVCPEPPGLDDPLAQDGAGVS [A54L L235A]	42 °C and 45 °C	11 °C and 13 °C
MPIMGSSVYITVELAIAVLAILGNVLVCWAVWLNSNLQNVTNYFVVSLAAADILVGVLAIPFAITISTGFCAACAGCLFIACFVLVLAQSSIFSLLAIAIDRYIAIRIPLRYNGLVTGTRAKGIIAICWVLSFAIGLTPMLGWNNCGQPKEGKNHSQGCGEGQVACLFEDVVPMNYMVYFNFFACVLVPLLLMLGVYLRIFLAARRQLKQMESQPLPGERARSTLQKEVHAAKSLAIIAGLFALCWLPLHIINCFTFFCPDCSHAPLWLMYLAIVLSHTNSVVNPFIYAYRIREFRQTFRKIIRSHVLRQQEPFKAAGTSARVLAAHGSDGEQVSLRLNGHPPGVWANGSAPHPERRPNGYALGLVSGGSAQESQGNTGLPDVELLSHELKGVCPEPPGLDDPLAQDGAGVS [A54L H75A T88A V239A]	40 °C and 44 °C	9 °C and 12 °C
MPIMGSSVYITVELAIAVLAILGNVLVCWAVWLNSNLQNVTNYFVVSLAAADIAVGVLAIPFAITISTGFCAACHGCLFIACFVLVLTQSSIFSLLAIAIDRYIAIRIPLRYNGLVTGTRAKGIIAICWVLSFAIGLTPMLGWNNCGQPKEGKNHSQGCGEGQVACAFEDVVPMNYMVYFNFFLCVLVPLLLMLGVYLAIFLAARRQLKQMESQPLPGERARSTLQKEVHAAKSLAIIVGAFALCWLPLHIINCFTFFCPDCSHAPLWLMYAAIVLSHTNSVVNPFIYAYRIREFRQTFRKIIRSHVLRQQEPFKAAGTSARVLAAHGSDGEQVSLRLNGHPPGVWANGSAPHPERRPNGYALGLVSGGSAQESQGNTGLPDVELLSHELKGVCPEPPGLDDPLAQDGAGVS [L167A A184L R199A L241A L272A]	29 °C	9 °C
MPIMGSSVYITVELAIAVLAILGNVLVCWAVWLNSNLQNVTNYFVVSLAAADIAVGVLAIPFAITISTGFCAACHGCLFIACFVLVLTQSSIFSLLAIAIDRYIAIRIPLRYNGLVTGTRAKGIIAICWVLSFAIGLTPMLGWNNCGQPKEGKNHSQGCGEGQVACAFEDVVPMNYMVYFNFFLCVLVPLLLMLGVYLAIFLAARRQLKQMESQPLPGERARSTLQKEVAAAKSLAIIVGLFALCWLPLHIINCFTFFCPDCSHAPLWLMYLAIVLSHTNSVVNPFIYAYRIREFRQTFRKIIRSHVLRQQEPFKAAGTSARVLAAHGSDGEQVSLRLNGHPPGVWANGSAPHPERRPNGYALGLVSGGSAQESQGNTGLPDVELLSHELKGVCPEPPGLDDPLAQDGAGVS [L167A A184L R199A H230A]	31 °C	11 °C
MPIMGSSVYITVELAIAVLAILGNVLVCWAVWLNSNLQNVTNYFVVSLAAADILVGVLAIPFAITISTGFCAACHGCLFIACFVLVLAQSSIFSLLAIAIDRYIAIRIPLRYNGLVTGTRAKGIIAICWVLSFAIGLTPMLGWNNCGQPKEGKNHSQGCGEGQVACLFEDVVPMNYMVYFNFFACVLVPLLLMLGVYLRIFLAARRQLKQMESQPLPGERARSTLQKEVHAAKSLAIIVGLFALCWLPLHIINCFTFFCPDCSHAPLWLMYLAIVLSHTNSVVNPFIYAYRIREFRQTFRKIIRSHVLRQQEPFKAAGTSARVLAAHGSDGEQVSLRLNGHPPGVWANGSAPHPERRPNGYALGLVSGGSAQESQGNTGLPDVELLSHELKGVCPEPPGLDDPLAQDGAGVS [A54L T88A]	39 °C	8 °C
MPIMGSSVYITVELAIAVLAILGNVLVCWAVWLNSNLQNVTNYFVVSLAAADIAVGVLAIPFAITISTGFCAACHGCLFIACFVLVLTQSSIFSLLAIAIDRYIAIRIPLRYNGLVTGTRAAGIIAICWVLSFAIGLTPMLGWNNCGQPKEGKNHSQGCGEGQVACLFEDVVPMNYMVYFNFFACVLVPLLLMLGVYLRIFLAARRQLKQMESQPLPGERARSTLQKEVHAAKSAAIIVGLFALCWLPLHIINCFTFFCPDCSHAPLWLMYLAIVLSHTNSVVNPFIYAYRIREFRQTFRKIIRSHVLRQQEPFKAAGTSARVLAAHGSDGEQVSLRLNGHPPGVWANGSAPHPERRPNGYALGLVSGGSAQESQGNTGLPDVELLSHELKGVCPEPPGLDDPLAQDGAGVS [K122A L235A]	37 °C	6 °C
MPIMGSSVYITVELAIAVLAILGNVLVCWAVWLNSNLQNVTNYFVVSLAAADILVGVLAIPFAITISTGFCAACHGCLFIACFVLVLTQSSIFSLLAIAIDRYIAIRIPLRYNGLVTGTRAAGIIAICWVLSFAIGLTPMLGWNNCGQPKEGKNHSQGCGEGQVACLFEDVVPMNYMVYFNFFACVLVPLLLMLGVYLRIFLAARRQLKQMESQPLPGERARSTLQKEVHAAKSLAIIVGLFALCWLPLHIINCFTFFCPDCSHAPLWLMYLAIVLSHTNSVVNPFIYAYRIREFRQTFRKIIRSHVLRQQEPFKAAGTSARVLAAHGSDGEQVSLRLNGHPPGVWANGSAPHPERRPNGYALGLVSGGSAQESQGNTGLPDVELLSHELKGVCPEPPGLDDPLAQDGAGVS [A54L K122A]	35 °C and 40 °C	4 °C and 8 °C
MPIMGSSVYITVELAIAVLAILGNVLVCWAVWLNSNLQNVTNYFVVSLAAADILVGVLAIPFAITISTGFCAACAGCLFIACFVLVLTQSSIFSLLAIAIDRYIAIRIPLRYNGLVTGTRAKGIIAICWVLSFAIGLTPMLGWNNCGQPKEGKNHSQGCGEGQVACLFEDVVPMNYMVYFNFFACVLVPLLLMLGVYLRIFLAARRQLKQMESQPLPGERARSTLQKEVHAAKSLAIIAGLFALCWLPLHIINCFTFFCPDCSHAPLWLMYLAIVLSHTNSVVNPFIYAYRIREFRQTFRKIIRSHVLRQQEPFKAAGTSARVLAAHGSDGEQVSLRLNGHPPGVWANGSAPHPERRPNGYALGLVSGGSAQESQGNTGLPDVELLSHELKGVCPEPPGLDDPLAQDGAGVS [A54L H75A V239A]	37 °C	6 °C
MPIMGSSVYITVELAIAVLAILGNVLVCWAVWLNSNLQNVTNYFVVSLAAADILVGVLAIPFAITISTGFCAACHGCLFIACFVLVLTQSSIFSLLAIAIDRYIAIRIPLRYNGLVTGTRAKGIIAICWVLSFAIGLTPMLGWNNCGQPKEGKNHSQGCGEGQVACLFEDVVPMNYMVYFNFFACVLVPLLLMLGVYLRIFLALRRQLKQMESQPLPGERARSTLQKEVHAAKSLAIIVGLFALCWLPLHIINCFTFFCPDCSHAPLWLMYLAIVLSHTNSVVNPFIYAYRIREFRQTFRKIIRSHVLRQQEPFKAAGTSARVLAAHGSDGEQVSLRLNGHPPGVWANGSAPHPERRPNGYALGLVSGGSAQESQGNTGLPDVELLSHELKGVCPEPPGLDDPLAQDGAGVS [A54L A204L]	33 °C	2 °C
MPIMGSSVYITVELAIAVLAILGNVLVCWAVWLNSNLQNVTNYFVVSLAAADIAVGVLAIPFAITISTGFCAACHGCLFIACFVLVLTQSSIFSLLAIAIDRYIAIRIPLRYNGLVTGTRAKGIIAICWVLSFAIGLTPMLGWNNCGQPKEGKNHSQGCGEGQVACAFEDVVPMNYMVYFNFFLCVLVPLLLMLGVYLRIFLAARRQLKQMESQPLPGERARSTLQKEVHAAKSLAIIVGLFALCWLPLHIINCFTFFCPDCSHAPLWLMYAAIVLSHTNSVVNPFIYAYRIREFRQTFRKIIRSHVLRQQEPFKAAGTSARVLAAHGSDGEQVSLRLNGHPPGVWANGSAPHPERRPNGYALGLVSGGSAQESQGNTGLPDVELLSHELKGVCPEPPGLDDPLAQDGAGVS [L167A A184L L272A]	27 °C	7 °C
MPIMGSSVYITVELAIAVLAILGNVLVCWAVWLNSNLQNVTNYFVVSLAAADILVGVLAIPFAITISTGFCAACHGCLFIACFVLVLTQSSIFSLLAIAIDRYIAIRIPLRYNGLVTGTRAAGIIAICWVLSFAIGLTPMLGWNNCGQPKEGKNHSQGCGEGQVACLFEDVVPMNYMVYFNFFACVLVPLLLMLGVYLRIFLAARRQLKQMESQPLPGERARSTLQKEVHAAKSAAIIVGLFALCWLPLHIINCFTFFCPDCSHAPLWLMYLAIVLSHTNSVVNPFIYAYRIREFRQTFRKIIRSHVLRQQEPFKAAGTSARVLAAHGSDGEQVSLRLNGHPPGVWANGSAPHPERRPNGYALGLVSGGSAQESQGNTGLPDVELLSHELKGVCPEPPGLDDPLAQDGAGVS [A54L K122A L235A]	47 °C and 48 °C	16 °C
MPIMGSSVYITVELAIAVLAILGNVLVCWAVWLNSNLQNVTNYFVVSLAAADILVGALAIPFAITISTGFCAACHGCLFIACFVLVLTQSSIFSLLAIAIDRYIAIRIPLRYNGLVTGTRAKGIIAICWVLSFAIGLTPMLGWNNCGQPKEGKNHSQGCGEGQVACLFEDVVPMNYMVYFNFFACVLVPLLLMLGVYLRIFLAARRQLKQMESQPLPGERARSTLQKEVHAAKSLAIIVGLFALCWLPLHIINCFTFFCPDCSHAPLWLMYLAIVLSHTNSVVNPFIYAYRIREFRQTFRKIIRSHVLRQQEPFKAAGTSARVLAAHGSDGEQVSLRLNGHPPGVWANGSAPHPERRPNGYALGLVSGGSAQESQGNTGLPDVELLSHELKGVCPEPPGLDDPLAQDGAGVS [A54L V57A]	31 °C	0 °C
